Test [1] concerns the target human CXCR1 on transfected L1.2 cells (human) (UniProt P25024).
Test [2] has as its target CXCL8 (6-77), produced in-house (human). Briefly: SEC-MALS; CXCL8 at 4.2 mg/ml (0.5 mM), Superdex 75 10/300 GL, 20 mM Na phosphate pH 6.5, 100 mM NaCl, room temperature; a single species.

Sequence of human CXCR1 on transfected L1.2 cells (human) (P25024 whole entry): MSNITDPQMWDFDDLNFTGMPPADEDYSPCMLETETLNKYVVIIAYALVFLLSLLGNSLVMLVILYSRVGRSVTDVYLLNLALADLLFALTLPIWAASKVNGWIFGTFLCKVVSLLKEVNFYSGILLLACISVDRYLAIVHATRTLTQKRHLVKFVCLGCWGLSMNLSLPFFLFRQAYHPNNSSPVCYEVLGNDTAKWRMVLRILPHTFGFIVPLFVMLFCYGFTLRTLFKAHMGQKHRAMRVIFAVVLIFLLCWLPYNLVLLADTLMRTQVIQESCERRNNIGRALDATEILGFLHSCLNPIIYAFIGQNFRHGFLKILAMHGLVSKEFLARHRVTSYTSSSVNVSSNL

In the case of “CXCL8 (6-77), produced in-house (ligand)”, the chemotaxis of CXCR1-transfected L1.2 cells (modified Boyden chamber, 5 h), serial dilutions of CXCL8, bell-shaped response; percentage of cells migrated at the optimal concentration in test [1] was 20%. Moreover, the stoichiometry N in test [2] turned out to be 2.

Turning to “Recombinant CXCL8 (6-77), commercially available (ligand)”, in test [1], the chemotaxis of CXCR1-transfected L1.2 cells (modified Boyden chamber, 5 h), serial dilutions of CXCL8, bell-shaped response; percentage of cells migrated at the optimal concentration came to 20%.

What is called stoichiometry N is the number of molecules, sites or subunits per partner or assembly.

The values above are taken from paper PMC8519433.
